From paper PMC7802242, “The nuclear lamina is a hub for the nuclear function of Jacob” (Molecular Brain, 2021) come the findings set out here.

One assay addresses T1, untagged LaminB1 (human, UniProt P20700 1-586).
T1 construct: Lamin B1, human, subcloned from mTagRFP-hLaminB1 into the Intein-pMXB10 vector between NdeI and XhoI; Cloning through the XhoI site may leave a few vector residues at the C-terminus after the intein is cut off (surmise); also called recombinant LaminB1; LaminB1(PMXB10); source: E. coli SHuffle (C3026), purified (chitin resin, released with 50 mM DTT)
T1 sequence (looked up): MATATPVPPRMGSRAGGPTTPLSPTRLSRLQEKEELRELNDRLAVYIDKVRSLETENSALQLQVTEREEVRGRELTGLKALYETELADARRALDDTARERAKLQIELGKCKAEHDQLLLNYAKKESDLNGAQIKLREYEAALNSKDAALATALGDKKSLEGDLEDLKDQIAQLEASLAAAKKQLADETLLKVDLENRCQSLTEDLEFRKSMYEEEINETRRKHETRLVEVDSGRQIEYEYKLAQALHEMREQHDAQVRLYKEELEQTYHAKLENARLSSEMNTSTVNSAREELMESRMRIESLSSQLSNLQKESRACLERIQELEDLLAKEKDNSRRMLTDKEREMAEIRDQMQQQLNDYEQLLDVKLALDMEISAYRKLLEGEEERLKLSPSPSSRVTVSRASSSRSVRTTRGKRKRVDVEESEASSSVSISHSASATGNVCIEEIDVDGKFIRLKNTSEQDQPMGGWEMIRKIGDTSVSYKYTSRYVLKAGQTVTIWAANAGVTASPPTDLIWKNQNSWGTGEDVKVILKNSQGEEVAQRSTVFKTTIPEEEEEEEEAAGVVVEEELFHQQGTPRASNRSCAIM
Description: pull-down; amylose-MBP matrix alone or coupled with MBP-Jacob proteins, washed in 20 mM Tris pH 7.5, 1 mM DTT, 3 mM EDTA, 100 mM NaCl, 0.3% TritonX-100; incubated with 20 μg of untagged LaminB1 or untagged CRM1 overnight at 4 °C; Western blot. The settings on record: both partners purified.

A further assay addresses T2, untagged-CRM1 (human, UniProt O14980 1-1071).
T2 construct: CRM1 (Exportin 1), human, subcloned from 3xFLAG-hCRM1 into the Intein-pMXB10 vector between NdeI and XhoI; Cloning through the XhoI site may leave a few vector residues at the C-terminus after the intein is cut off (surmise); also called recombinant CRM1; CRM1 (PMXB10); source: E. coli ExpressLysY/Iq, purified (chitin resin, released with 50 mM DTT)
The description is as above. The settings on record: both partners purified.

T2 sequence (O14980 whole entry): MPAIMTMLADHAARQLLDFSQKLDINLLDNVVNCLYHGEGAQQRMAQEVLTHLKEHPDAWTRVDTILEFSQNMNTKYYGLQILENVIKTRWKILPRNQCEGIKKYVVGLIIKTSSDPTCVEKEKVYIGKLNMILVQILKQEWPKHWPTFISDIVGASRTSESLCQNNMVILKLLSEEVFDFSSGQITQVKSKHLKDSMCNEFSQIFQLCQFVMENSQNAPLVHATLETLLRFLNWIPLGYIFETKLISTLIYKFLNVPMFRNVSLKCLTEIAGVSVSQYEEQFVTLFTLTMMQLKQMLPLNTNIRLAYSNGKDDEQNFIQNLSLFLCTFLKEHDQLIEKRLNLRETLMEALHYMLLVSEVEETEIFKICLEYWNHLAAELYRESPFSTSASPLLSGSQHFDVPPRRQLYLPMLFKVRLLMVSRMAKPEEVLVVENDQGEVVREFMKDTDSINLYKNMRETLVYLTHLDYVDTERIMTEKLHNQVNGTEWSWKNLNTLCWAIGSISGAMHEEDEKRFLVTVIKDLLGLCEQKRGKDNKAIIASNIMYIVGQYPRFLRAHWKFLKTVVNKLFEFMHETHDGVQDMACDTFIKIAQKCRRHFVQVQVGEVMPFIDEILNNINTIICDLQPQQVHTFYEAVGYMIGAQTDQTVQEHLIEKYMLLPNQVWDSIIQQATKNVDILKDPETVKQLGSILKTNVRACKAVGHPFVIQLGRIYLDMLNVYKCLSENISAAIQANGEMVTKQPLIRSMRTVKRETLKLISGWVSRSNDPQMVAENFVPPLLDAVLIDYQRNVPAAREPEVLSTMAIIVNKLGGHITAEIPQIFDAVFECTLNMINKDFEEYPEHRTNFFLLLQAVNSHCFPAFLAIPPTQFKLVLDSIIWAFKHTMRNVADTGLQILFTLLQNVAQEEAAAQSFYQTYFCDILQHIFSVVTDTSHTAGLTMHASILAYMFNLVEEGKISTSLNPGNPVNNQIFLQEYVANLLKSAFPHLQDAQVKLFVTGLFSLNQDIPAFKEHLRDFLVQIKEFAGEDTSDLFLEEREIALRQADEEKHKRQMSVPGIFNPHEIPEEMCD

B1: MBP-45-532-Jacob (domain or fragment, rat, UniProt Q9EPI6 45-532, looked up)
chain: DHLLADAYSGHEGSPEMQPAPHNKRRLSLVSNGRYEGSISDEAVSGKTATEGPQPRVYTISREPALLPGSEAEAIELAVVKGRRQRERHPHHHSQPLRASPGSSREDISRPCQSWAGSRQGSKECPGCAKLVPGPSPRAFGLEQPPLPEASGRHKKLERMYSVDGVSDDVPIRTWFPKENPFSFQTATTTMQAISVFRGYAERKRRKRENDSASVIQRNFRKHLRMVGSRRVKAQTFAERRERSFSRSWSDPTPMKADTSHDSRDSSDLQSSHCTLDEACEDLDWDTEKGLEATACDTEGFLPPKVMLISSKVPKAEYIPTIIRRDDPSIIPILYDHEHATFEDILEEIEKKLNIYHKGAKIWKMLIFCQGGPGHLYLLKNKVATFAKVEKEEDMIHFWKRLSRLMSKVNPEPNVIHIMGCYILGNPNGEKLFQNLRTLMTPYKVTFESPLELSAQGKQMIETYFDFRLYRLWKSRQHSKLLDFDDVL
notes: Jacob (Nsmf), residues 45-532, truncated for protein stability; also called amylose-MBP-45-532-Jacob; Jacob fused to MBP; source: E. coli SHuffle (C3026), pMAL vector, coupled to amylose resin
Turning to B1, the binding result with untagged LaminB1 and with untagged-CRM1 was “binds” each time.
